Data: PMC6327041 (Nature Communications, 2019)
Where two headings read alike, the source gives them in different places.

Target: T1, KDM5A1-797 (Homo sapiens, UniProt P29375)
T1 construct: KDM5A1-797 was cloned into a pFASTBAC HTA vector; His (N, cleaved yes); made in house; host or cells: Sf21 insect cells (baculovirus)
T1 sequence (P29375 1-797): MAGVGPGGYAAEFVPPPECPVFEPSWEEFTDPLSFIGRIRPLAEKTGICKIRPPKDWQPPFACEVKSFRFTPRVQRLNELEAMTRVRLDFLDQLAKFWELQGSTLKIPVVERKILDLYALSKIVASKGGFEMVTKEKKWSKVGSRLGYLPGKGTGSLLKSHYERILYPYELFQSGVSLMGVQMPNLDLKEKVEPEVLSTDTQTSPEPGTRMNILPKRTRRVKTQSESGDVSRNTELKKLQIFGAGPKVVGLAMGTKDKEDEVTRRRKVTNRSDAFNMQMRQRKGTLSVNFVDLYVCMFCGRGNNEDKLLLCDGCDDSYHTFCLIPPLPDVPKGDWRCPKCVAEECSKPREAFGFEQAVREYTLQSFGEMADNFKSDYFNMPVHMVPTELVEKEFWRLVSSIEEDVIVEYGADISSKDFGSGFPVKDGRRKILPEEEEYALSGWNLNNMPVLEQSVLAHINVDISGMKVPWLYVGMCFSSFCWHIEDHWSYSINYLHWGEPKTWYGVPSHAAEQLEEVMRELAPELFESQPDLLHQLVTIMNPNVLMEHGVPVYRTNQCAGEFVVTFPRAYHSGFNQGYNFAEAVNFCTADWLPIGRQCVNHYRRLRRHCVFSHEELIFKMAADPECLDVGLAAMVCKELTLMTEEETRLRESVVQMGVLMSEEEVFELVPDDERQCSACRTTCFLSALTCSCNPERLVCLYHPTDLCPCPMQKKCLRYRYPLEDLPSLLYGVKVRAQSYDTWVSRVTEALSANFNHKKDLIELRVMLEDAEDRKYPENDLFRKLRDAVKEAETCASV
Assay: KDM5A demethylation, FDH-coupled formaldehyde release assay
Assay type: biochemical
Conditions: for kcat / Km: n ≥ 3, s.e.m.
Experimental: WT KDM5A1-797 was expressed in Sf21 cells following Invitrogen Bac-to-Bac baculovirus expression system protocol. KDM5A1-797 was cloned into a pFASTBAC HTA vector. Purified bacmid was transfected in Sf21 cells. Approximately […] cells per well of a six-well dish were allowed to attach in 2 ml of SF-900 II SFM media containing 50 U ml^−1 penicillin and 50 μg ml^−1 streptomycin. While cells attached, 8 μl of Cellfectin II reagent (Invitrogen) in 100 μl of unsupplemented Grace’s medium was mixed with ~2–5 μg of bacmid in 100 μl of unsupplemented Grace’s medium and incubated for 15–30 min at 25 °C. Once cells were attached, media was removed and cells were washed with 2 ml of Grace’s unsupplemented media. The bacmid DNA:Cellfectin mixture was then diluted to 1 ml with Grace’s unsupplemented media and added to the well. Cells with bacmid:Cellfectin II mixture were incubated for 5 h at 27 °C. After 5 h of incubation, bacmid:Cellfectin mixture was removed and replaced with 2 ml of SF-900 II SFM 50 U ml^−1 penicillin and 50 μg ml^−1 streptomycin. Transfected cells were incubated 3–5 days or until signs of viral infection were observed. After transfection, the supernatant was spun down to remove the dead cells. The supernatant was then sterile filtered to obtain the P1 viral stock. To make P2, 20 ml of […] at ~2 × 10^6 cells per ml of sf21 was infected with 2 ml of P1 virus and incubated for 48–60 h. After 56 h, the cells were spun down and the supernatant was collected and sterile filtered to obtain P2 viral stock. Similarly, P3 viral stock from P2 viral stock was obtained. Generally, 1 l of Sf21 at 2 × 10^6 cells per ml was infected with ~40 ml of P3 virus for ~48–56 h. Cells were then collected and resuspended in the lysis buffer (25 mM HEPES pH 7.9, 350 mM NaCl, 5 mM KCl, 1.5 mM MgCl2, 10 mM imidazole, aprotinin 2 μg ml^−1, leupeptin 3 μg ml^−1, pepstatin 3 μg ml^−1, and 1 mM PMSF). Cells were homogenized by emulsiflex. After lysis, the supernatant was recovered by centrifuging at 35k r.p.m. for 45 min, and incubated with cobalt resin equilibrated in lysis buffer for 1 h at 4 °C. After incubation the resin was washed with wash buffer (25 mM HEPES, pH 7.9, 350 mM NaCl, 0.5 mM MgCl2, 10% glycerol, 10 mM imidazole, aprotinin 2 μg ml^−1, leupeptin 3 μg ml^−1, pepstatin 3 μg ml^−1, and 1 mM PMSF). His-KDM5A was eluted with elution buffer (25 mM HEPES pH 7.9, 100 mM NaCl, 0.5 mM MgCl2, 10% glycerol, 100 mM imidazole, aprotinin 2 μg ml^−1, leupeptin 3 μg ml^−1, pepstatin 3 μg ml^−1, and 1 mM PMSF). The His-tag was removed by overnight incubation with TEV protease at 4 °C in the dialysis buffer (25 mM HEPES, pH 7.9, 100 mM NaCl, and 2 mM DTT). After cleavage, protein was further purified by size-exclusion chromatography using a S200 column. Purified KDM5A was eluted, aliquoted and stored at −80 °C in 40 mM HEPES, pH 7.9, 50 mM KCl.
Michaelis–Menten parameters were determined using Graphpad Prism.

[1] = 38 µM H3 10mer effector peptide vs none
[2] = KDM5A1-797 WT (Table 3), no effector

Row | Substance | change of kcat on addition of effector peptide [1] | reduction in Km on addition of effector peptide [1] | kcat/Km (+H3 10mer peptide (38 µM)) [M⁻¹ s⁻¹] | kcat (+H3 10mer peptide (38 µM), 1 μM KDM5A, pH 7.5, room temperature) [s⁻¹] | Km (+H3 10mer peptide (38 µM), 1 μM KDM5A, pH 7.5, room temperature, read-out: Km) [µM] | kcat/Km [2] [M⁻¹ s⁻¹] | kcat [2] [s⁻¹] | Km (KDM5A1-797 WT (Table 3), no effector, read-out: Km) [µM] | kcat/Km (No effector peptide) [M⁻¹ s⁻¹] | kcat (No effector peptide, 1 μM KDM5A, pH 7.5, room temperature) [s⁻¹] | Km (No effector peptide, 1 μM KDM5A, pH 7.5, room temperature, read-out: Km) [µM] | rank of Km reduction among effector peptides (Ac-H3K4me3 21mer substrate, saturating effector peptide) | Km (Km of Ac-H3K4me3 21mer with saturating modified H3 10mer effector (20× Kd; H3K4me2 10× Kd), 1 μM KDM5A, 50 mM HEPES, 50 mM KCl, pH 7.5, room temperature, read-out: Demethylase activity Km with effector peptide (Fig. 4a)) [µM]
1 | Ac-H3K4me3 21mer: N-terminally acetylated 21mer H3K4me3 peptide, catalytic domain substrate | kcat remains similar | fivefold | 2430 ± 200 | 0.0408 ± 0.00067 | 16.8 ± 1.1 | 490 ± 55 | 0.047 ± 0.0013 | 95.5 ± 7.6 | 490 ± 55 | 0.047 ± 0.001 | 95.5 ± 7.6 | – | –
2 | H3: unmodified N-terminal H3 tail 10mer peptide (H3 Ala1-Ser10), PHD1 effector ligand | – | – | – | – | – | – | – | – | – | – | – | highest reduction in Km | 16.8 ± 1.1
